Reference: PMC3048587 (Biochemistry, 2011)

Target: Rac W56F mutant (UniProt P63000 1-192, W56F)
Assay: cell-based or functional assay

B1: Dock180^DHR-2c (C-terminus of DHR-2 in Dock180, residues 1335-1657) (domain or fragment)
chain: KPDYFAVGYYGQGFPTFLRGKVFIYRGKEYERREDFEARLLTQFPNAEKMKTTSPPGDDIKNSPGQYIQCFTVKPKLDLPPKFHRPVSEQIVSFYRVNEVQRFEYSRPIRKGEKNPDNEFANMWIERTIYTTAYKLPGILRWFEVKSVFMVEISPLENAIETMQLTNDKINSMVQQHLDDPSLPINPLSMLLNGIVDPAVMGGFANYEKAFFTDRYLQEHPEAHEKIEKLKDLIAWQIPFLAEGIRIHGDKVTEALRPFHERMEACFKQLKEKVEKEYGVRIMPSSLDDRRGSRPRSMVRSFTMPSSSRPLSVASVSSLSSDS
- Mant-GDP nucleotide exchange (GEF activity of DHR-2c), relative to wild-type Rac: < 10 % of the level of wild-type Rac
